The text below walks through data of publication PMC8137920, “Self-association of MreC as a regulatory signal in bacterial cell wall elongation” (Nature Communications, 2021).

Data set [1] deals with the molecule itself. As to the kind of experiment: negative-staining electron microscopy; purified protein concentrated in 25 mM CHES pH 9.0, 150 mM NaCl, 10 mM MgCl2; mica-carbon flotation, 2% sodium silico tungstate pH 7.4.
Data set [2] deals with the molecule itself. The data set can be described thus: AUC; sedimentation velocity (SV-AUC), 0.8 mg/ml protein, 25 mM CHES pH 9.0, 150 mM NaCl, 10 mM MgCl2, 62,000 g, 20 °C, absorbance at 280 nm, c(s) analysis with Sedfit.

B1: MreC from Pseudomonas aeruginosa lacking the TM region and the first 21 residues of its N-terminal helix, residues 36-330 (domain or fragment, Pseudomonas aeruginosa PAO1, UniProt Q9HVU1 36-330, looked up)
chain: LAEMPVRAWEGVRDQFSSRSELIAENERLKAESLLMQRRVQKLAALTEQNVRLRELLNSAALVDDKVLVSELIGVDPNPFTQRIMIDKGENDGVFVGQPVLDASGLMGQVVEVMPYTARVLLLTDTTHSIPVQVNRNGLRAIAVGTGNPERLELRYVADTADIKEGDLLVSSGLGQRFPAGYPVATVKEVIHDSGQPFAVVRAVPTAKMNRSRYVLLVFSDSRTPEQRANDAAEAQEEADKKAAAGAQAPQPAAQPAAAPSPATPAAQGAAQQPAAAPAPAPTQPAAPAANGGRR
notes: MreC, Pseudomonas aeruginosa PAO1, residues 36-330; also called MreCPa(36-330); MreCPa; not shown: GST, N-terminal, cleaved
On to B1, for which, in data set [1], the binding result is listed as “binds”.

B2: MreC from Pseudomonas aeruginosa, periplasmic form, residues 15-330 (domain or fragment, Pseudomonas aeruginosa PAO1, UniProt Q9HVU1 15-330, looked up)
chain: RFDYLEPVRSKLGMVLTPFYGLAEMPVRAWEGVRDQFSSRSELIAENERLKAESLLMQRRVQKLAALTEQNVRLRELLNSAALVDDKVLVSELIGVDPNPFTQRIMIDKGENDGVFVGQPVLDASGLMGQVVEVMPYTARVLLLTDTTHSIPVQVNRNGLRAIAVGTGNPERLELRYVADTADIKEGDLLVSSGLGQRFPAGYPVATVKEVIHDSGQPFAVVRAVPTAKMNRSRYVLLVFSDSRTPEQRANDAAEAQEEADKKAAAGAQAPQPAAQPAAAPSPATPAAQGAAQQPAAAPAPAPTQPAAPAANGGRR
notes: MreC, Pseudomonas aeruginosa PAO1, residues 15-330; lacks the first 14 amino acids (cytoplasmic residues and TM region); The results call it only 'MreCPa' (periplasmic form); also called MreCPa; MreCPa(15-330); not shown: GST, N-terminal, cleaved
For the protein B2, in data set [2], the binding result is given as “binds”.
